Data taken from patent US20080279864A1.

Molecular target: N-type (CaV2.2) Ca2+ channel (α1B with β2a and α2δ) in HEK293 cells (human; rat), Q00975
Test: cell-based or functional assay

N-type (CaV2.2) Ca2+ channel (α1B with β2a and α2δ) in HEK293 cells (human; rat), Q00975, sequence (P54290 25-1091, stated change not applied, chain 3 of 2, other chains not shown): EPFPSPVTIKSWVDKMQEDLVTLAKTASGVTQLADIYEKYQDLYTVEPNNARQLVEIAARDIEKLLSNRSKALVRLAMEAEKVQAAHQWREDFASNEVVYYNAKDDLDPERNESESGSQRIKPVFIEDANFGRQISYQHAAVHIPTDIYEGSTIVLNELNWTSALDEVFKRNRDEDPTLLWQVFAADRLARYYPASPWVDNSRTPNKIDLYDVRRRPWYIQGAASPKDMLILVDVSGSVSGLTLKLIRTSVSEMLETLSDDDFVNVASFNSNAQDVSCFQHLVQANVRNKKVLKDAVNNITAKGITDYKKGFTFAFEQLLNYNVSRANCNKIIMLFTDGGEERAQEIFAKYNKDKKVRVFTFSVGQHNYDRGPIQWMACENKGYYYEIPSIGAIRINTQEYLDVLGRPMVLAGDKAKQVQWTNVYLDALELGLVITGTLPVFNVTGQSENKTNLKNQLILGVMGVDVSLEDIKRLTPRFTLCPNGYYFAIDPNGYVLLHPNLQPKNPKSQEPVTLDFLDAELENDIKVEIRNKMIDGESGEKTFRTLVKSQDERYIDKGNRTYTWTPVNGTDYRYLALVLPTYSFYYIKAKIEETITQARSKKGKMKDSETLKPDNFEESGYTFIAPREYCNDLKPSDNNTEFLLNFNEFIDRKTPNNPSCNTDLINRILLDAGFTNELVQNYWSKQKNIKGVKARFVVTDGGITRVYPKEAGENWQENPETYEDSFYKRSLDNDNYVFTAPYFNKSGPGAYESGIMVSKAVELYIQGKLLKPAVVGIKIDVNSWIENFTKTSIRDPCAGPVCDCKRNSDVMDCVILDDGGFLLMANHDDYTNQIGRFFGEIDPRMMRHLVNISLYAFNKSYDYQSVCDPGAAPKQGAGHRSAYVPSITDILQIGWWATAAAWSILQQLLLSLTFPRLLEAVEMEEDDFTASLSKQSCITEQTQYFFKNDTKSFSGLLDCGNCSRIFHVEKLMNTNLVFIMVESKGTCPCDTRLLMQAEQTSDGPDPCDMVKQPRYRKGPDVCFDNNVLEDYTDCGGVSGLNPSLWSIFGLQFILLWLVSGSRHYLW

DF, degree of prepulse facilitation, free NTB with Gβγ: 4
conversion to constitutively reluctant channels, free NTB with Gβγ: 75%
B1: free NTB peptide (residues 1-95, without CFP fusion) (peptide)
peptide: MVRFGDELGGRYGGPGGGERARGGGAGGAGGPGPGGLQPGQRVLYKQSIAQRARTMALYNPIPVKQNCFTVNRSLFVFSEDNVVRKYAKRITEWP
